Data published in patent US7935343B2.
One block for each binder: values may come before it.

What was measured:
murine IL-13 (murine) [1] = molecular target: T1, murine IL-13 (murine)
T1 sequence: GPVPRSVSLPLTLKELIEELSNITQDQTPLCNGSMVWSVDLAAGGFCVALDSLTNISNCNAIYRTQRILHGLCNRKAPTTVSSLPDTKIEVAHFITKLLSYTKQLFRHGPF

murine IL-13 (murine) [2] = molecular target: T1, murine IL-13 (murine); remark: listed apart in the source

Chain of human IL-13 (human) (chain, as listed by the source): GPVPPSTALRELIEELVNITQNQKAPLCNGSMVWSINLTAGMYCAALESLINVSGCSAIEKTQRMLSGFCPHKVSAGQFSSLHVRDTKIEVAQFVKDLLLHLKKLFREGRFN

IC50, TF-1 proliferation (Mean TF1) (human IL-13 (human)): 44 nM
B1: BAK278D6 scFv (scFv, V domains shown)
VH: EVQLVQSGAEVKKPGASVKVSCKASGYTFRNYGLSWVRQAPGQGLEWMGWISANNGDTNYGQEFQGRITMTTETSTNTAHMELRSLRSDDTAVYYCVRDSSSNWARWFFDLWGKGTMVTVSS
VL: SYVLTQPPSVSVAPGQTARIPCGGNNIGSKLVHWYQQKPGQAPVLVVYDDGDRPSGIPERFSGSNSGNTATLTISRIDAGDEADYYCQVWDTGSDPVVFGGGTKLTVL

IC50, TF-1 cell proliferation (murine IL-13 (murine) [1]): 185 nM
B2: BAK209B11 scFv (scFv, V domains shown)
VH: VQLQESGGGGLVQPGGSLRLSCAASGFTFSSYGMSWVRQAPGKGLEWVSSISASGDSTFYADSVKGRFTISRDNNKNMVFLQVNSLRADDTAVYFCAKDWSQWLVGDAFDVWGRGTTVTVSS
VL: DIQLTQSPSTLSASVGDRVTITCRASQSVSLWVAWYQQRPGKAPKLLIYDGSTLQSGVPARFSGSGSGTEFTLTISSLQPDDFATYYCQQYKTFSTFGQGTKVEIKR

IC50, B9 cell proliferation (murine IL-13 (murine) [2]): 0.776 nM
B3: BAK209B11 human IgG4 (antibody, V domains shown)
VH: VQLQESGGGGLVQPGGSLRLSCAASGFTFSSYGMSWVRQAPGKGLEWVSSISASGDSTFYADSVKGRFTISRDNNKNMVFLQVNSLRADDTAVYFCAKDWSQWLVGDAFDVWGRGTTVTVSS
VL: DIQLTQSPSTLSASVGDRVTITCRASQSVSLWVAWYQQRPGKAPKLLIYDGSTLQSGVPARFSGSGSGTEFTLTISSLQPDDFATYYCQQYKTFSTFGQGTKVEIKR
